Experiments:
[1] = target: T1, Vascular endothelial growth factor (VEGF) (Homo sapiens (assumed), UniProt P15692-4); test: BLI; Octet RED; anti-human IgG biosensor pre-saturated with bevacizumab or FD006 (10 ug/ml); VEGF at 10, 3 and 1 ug/ml in solution; 30°C, PBS; association 5 min, dissociation 10 min; non-linear global fit; settings: both partners purified
T1 construct: vascular endothelial growth factor A; also called VEGFA; VEGF-A

[2] = target: T1, Vascular endothelial growth factor …; test: cell-based or functional assay

T1 sequence (P15692 whole entry): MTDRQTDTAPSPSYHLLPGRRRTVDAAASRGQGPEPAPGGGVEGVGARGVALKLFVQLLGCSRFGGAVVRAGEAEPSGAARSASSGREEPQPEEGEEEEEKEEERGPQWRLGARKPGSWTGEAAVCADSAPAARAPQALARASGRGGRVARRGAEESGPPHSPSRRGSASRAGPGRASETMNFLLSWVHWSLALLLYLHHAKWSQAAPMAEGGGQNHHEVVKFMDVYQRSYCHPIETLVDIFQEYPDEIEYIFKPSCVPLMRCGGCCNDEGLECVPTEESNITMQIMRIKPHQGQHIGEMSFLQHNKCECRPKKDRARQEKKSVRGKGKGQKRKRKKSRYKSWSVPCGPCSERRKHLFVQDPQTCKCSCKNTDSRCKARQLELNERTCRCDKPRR

Kd [1]: 0.311 nM
koff [1]: 4.59e-05 s⁻¹
kon [1]: 148000 M⁻¹ s⁻¹
IC50 of inhibition of VEGF-induced proliferation of HUVEC (antibody pre-incubated with 10 ng/ml VEGF, 72 h, CCK8) [2]: ~0.031 µg/mL
B1: FD006 (antibody, V domains shown)
VH: EVQLVQSGGGLVKPGGSLRLSCAASGFTLNASWIHWVRQAPGKGLEWVGAIYPYSGYSNYADSVKGRFTISADTSKNTLYLQMNSLRAEDTAVYYCARWGHSTSPYSAMDYWGQGTLVTVSS
VL: DIVMTQSPSSLSVSLGERVTITCRASQVLSRSLAWYQQKPGKAPKLLIYAASNVASGVPSRFSGSGSGTDFTLTISSLQPEDFATYYCQQSNTSPVTFGQGTKVEIK
notes: VH of FD006; heavy chain constant region of the full IgG; VL of FD006; light chain constant region of the full IgG; also called novel anti-VEGFA IgG; anti-VEGF monoclonal antibody FD006; source: recombinant vector transfected into mammalian cells, purified; prepared in our lab
